{
  "source": "paper PMC6135743",
  "molecules": {"B1": {"name": "PGT151 monoclonal antibody (bnAb) (antibody, V domains shown)", "VH": "RVQLVESGGGVVQPGKSVRLSCVVSDFPFSKYPMYWVRQAPGKGLEWVAAISGDAWHVVYSNSVQGRFLVSRDNVKNTLYLEMNSLKIEDTAVYRCARMFQESGPPRLDRWSGRNYYYYSGMDVWGQGTTVTVSS", "VL": "DIVMTQTPLSLSVTPGQPASISCKSSESLRQSNGKTSLYWYRQKPGQSPQLLVFEVSNRFSGVSDRFVGSGSGTDFTLRISRVEAEDVGFYYCMQSKDFPLTFGGGTKVDLK"}},
  "key": {"[1]": {"target": "BG505 ΔCT T332 membrane-bound Env trimer (HIV-1 strain BG505 (subtype A))", "test": "cryo-EM structure"}, "[2]": {"target": "BG505 ΔCT N332 membrane-bound Env trimer (HIV-1 strain BG505 (subtype A))", "test": "native gel or EMSA"}, "[3]": {"target": "BG505 N332 SOSIP.664 soluble Env trimer (HIV-1 strain BG505 (subtype A))", "test": "native gel or EMSA"}, "[4]": {"target": "B41 SOSIP.664 soluble Env trimer (HIV-1 strain B41 (subtype B))", "test": "native gel or EMSA"}, "[5]": {"target": "BG505 ΔCT T332 membrane-bound Env trimer (HIV-1 strain BG505 (subtype A))", "test": "native gel or EMSA"}, "[6]": {"target": "JR-FL ΔCT membrane-bound Env trimer (HIV-1 strain JR-FL (subtype B)) (UniProt Q75760)", "test": "native gel or EMSA"}, "[7]": {"target": "B41 viral Env trimer from infectious virus (HIV-1 strain B41 (subtype B))", "test": "native gel or EMSA"}, "[8]": {"target": "B41 ΔCT membrane-bound Env trimer (HIV-1 strain B41 (subtype B))", "test": "native gel or EMSA"}, "[9]": {"target": "JR-FL E168K SOSIP.664 soluble Env trimer (HIV-1 strain JR-FL (subtype B)) (UniProt Q75760)", "test": "native gel or EMSA"}, "[10]": {"target": "JR-FL viral Env trimer from infectious virus (HIV-1 strain JR-FL (subtype B))", "test": "native gel or EMSA"}, "[11]": {"target": "BG505 viral Env trimer from infectious virus (HIV-1 strain BG505 (subtype A))", "test": "native gel or EMSA"}, "[12]": {"target": "B41 viral Env trimer from infectious virus (HIV-1 strain B41 (subtype B))"}},
  "data": [
    {"molecule": "PGT151 Fab", "values": [
      {"measurement": "stoichiometry N (Fabs per trimer)", "setting": "[1]", "value": "< 2"}
    ]},
    {"molecule": "BG505 ΔCT N332 membrane-bound Env trimer (complex)", "values": [
      {"measurement": "stoichiometry N", "setting": "[2]", "value": 3}
    ]},
    {"molecule": "BG505 N332 SOSIP.664 soluble Env trimer (complex)", "values": [
      {"measurement": "stoichiometry N", "setting": "[3]", "value": 3}
    ]},
    {"molecule": "B41 SOSIP.664 soluble Env trimer (complex)", "values": [
      {"measurement": "stoichiometry N", "setting": "[4]", "value": 3}
    ]},
    {"molecule": "BG505 ΔCT T332 membrane-bound Env trimer (complex)", "values": [
      {"measurement": "stoichiometry N", "setting": "[5]", "value": 3}
    ]},
    {"molecule": "JR-FL ΔCT membrane-bound Env trimer (from UniProt Q75760 1-847) (complex)", "values": [
      {"measurement": "stoichiometry N", "setting": "[6]", "value": 3}
    ]},
    {"molecule": "B41 viral Env trimer from infectious virus (complex)", "values": [
      {"measurement": "stoichiometry N", "setting": "[7]", "value": 3}
    ]},
    {"molecule": "B41 ΔCT membrane-bound Env trimer (complex)", "values": [
      {"measurement": "stoichiometry N", "setting": "[8]", "value": 3}
    ]},
    {"molecule": "JR-FL E168K SOSIP.664 soluble Env trimer (from UniProt Q75760 1-847) (complex)", "values": [
      {"measurement": "stoichiometry N", "setting": "[9]", "value": 3}
    ]},
    {"molecule": "JR-FL viral Env trimer from infectious virus (complex)", "values": [
      {"measurement": "stoichiometry N", "setting": "[10]", "value": 3}
    ]},
    {"molecule": "BG505 viral Env trimer from infectious virus (complex)", "values": [
      {"measurement": "stoichiometry N", "setting": "[11]", "value": 3}
    ]},
    {"molecule": "B1", "values": [
      {"measurement": "neutralisation of B41 virus, maximal percent (Supplementary Figure 5)", "setting": "[12]", "value": "< 75", "unit": "%"}
    ]}
  ]
}
